The values below come from PMC3575409, “Identification of a Novel Protein-Protein Interaction Motif Mediating Interaction of GPCR-Associated Sorting Proteins with G Protein-Coupled Receptors” (PLoS ONE, 2013).

The subject of assay [1] is GST-fused ADRB1 C-tail. The note with it: truncated form of GASP-1, amino-acids 898 to 1395; ref [10]; cited from earlier work. An excerpt: This discrepancy is most likely due to the fact that we used full-length GASPs to perform our experiments, while Heydorn and collaborators used a truncated form of GASP-1, corresponding to amino-acids 898 to 1395. When we performed GST-pull down experiments with a similar fragment of GASP-1 (corresponding to amino acids 924 to 1395), only 5% ...

The next assay has as its system GST-fused CNR2 C-tail. The experiment in a line: GST-pull down, CNR2 C-tail. The note with it: central domain compared to full-length GASP-1. The class given is binding. As for the experimental part:
(§1) cDNAs encoding the cytoplasmic C-tail of 14 GPCRs and 2 one-transmembrane receptors were cloned into the pGEX-2T prokaryotic expression vector downstream the GST sequence. […]
(§2) GST-fusion proteins were immobilized on glutathione-coupled Sepharose beads (GE Healthcare) for 1 h at 4°C and incubated with [^35S]-labelled in vitro translated GASP proteins or their truncated or mutated forms in ice-cold binding buffer containing: 20 mM Tris-HCl pH 7.4, 150 mM NaCl, 1 mM EDTA, 1 mM DTT, 10% glycerol and 1% Triton X-100. […] The supernatants were then analyzed by SDS-PAGE, the gels were stained with Coomassie blue to visualize GST-fusion proteins, dried and analyzed using a Phosphor-imager (Personal Molecular Imager FX, Biorad) to visualize [^35S]-labelled GASPs. Quantification was performed with the Quantity One software (Biorad). GST-pull down quantification data were analyzed using GraphPad Prism 4.03 (GraphPad Software). Quantifications presented are means of at least three independent experiments.

Assay [2] concerns GST-fused TGFβ (type III transforming growth factor β receptor) C-tail. Description: GST-pull down, TGFβ C-tail. It is filed as binding. The note with it: non-GPCR control. A digest of the protocol: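 In vitro translated, [35S]-methionine-labelled GASP proteins were tested for retention by immobilized GST-tagged receptor C-terminal tails over 1 h at 4°C. Retained radioactivity after washing and SDS-PAGE gave the quantified binding, averaged over at least three independent experiments.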

The next assay deals with GST-fused ADRB2 C-tail. Description: GST-pull down, ADRB2 C-tail. The note with it: central domain compared to full-length GASP-1. The class given is binding. On the procedure:
as §1, §2

Assay [3] deals with GST-fused DOR C-tail. The experiment in a line: GST-pull down, DOR C-tail. It is filed as binding. The note with it: among the opioid receptors. A digest of the protocol: (§3)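 GST-C-tail (BL21, IPTG 1mM, 2 h/37°C) on glutathione-Sepharose 1 h 4°C; + [35S]-Met IVT GASP, 1 h 4°C, Tris-HCl pH 7.4, 150 mM NaCl, 1 mM EDTA, 1 mM DTT, 1% Triton; 5× washes; SDS-PAGE, phosphorimager readout.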

The subject of assay [4] is GST-fused IGF1 (insulin growth factor I receptor) C-tail. The experiment in a line: GST-pull down, IGF1 C-tail. It is filed as binding. The note with it: non-GPCR control. An outline of the steps: as §3
A further assay has as its system GST-fused GPCR C-tails. Description: GST-pull down, GPCR C-tails. The class given is binding. An outline of the steps: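 GST-fused receptor C-tails, expressed in E. coli BL21 and immobilised on glutathione-Sepharose at saturating levels, were incubated 1 h at 4°C with [^35S]-labelled in vitro translated GASP proteins in pH 7.4 Tris buffer with 1% Triton X-100. Bound GASPs were resolved by SDS-PAGE and quantified by phosphor-imaging; means of ≥3 experiments.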

In another assay the test system is GST-fused FZ4 C-tail. Description: GST-pull down, FZ4 C-tail. The note with it: strong = >10% of GASP input. It is filed as binding. On the procedure:
as §1, §2

The subject of assay [5] is GST-fused ADRB1 C-tail. The experiment in a line: GST-pull down, ADRB1 C-tail. The class given is binding. The note with it: percent of input; data not shown. An excerpt:
cDNAs encoding the cytoplasmic C-tail of 14 GPCRs and 2 one-transmembrane receptors were cloned into the pGEX-2T prokaryotic expression vector downstream the GST sequence. The following pGEX constructs were engineered: pGEX-DOR encoding residues 314–372 of the δ-opioid receptor (referring to Swiss-Prot accession number U10504), pGEX-MOR encoding residues 334–400 of the µ-opioid receptor (L29301), pGEX-KOR encoding residues 326–380 of the κ–opioid receptor (U17298), pGEX-ORL1 encoding residues 315–370 of the opioid receptor-like 1 (X77130), pGEX-M1 encoding residues 414–460 of the muscarinic M1 acetylcholine receptor (X52068), pGEX-M2 encoding residues 436–466 of the muscarinic M2 acetylcholine receptor (M16404), pGEX- ADRB1 encoding residues 373–477 of the β1 adrenergic receptor (J03019), pGEX-ADRB2 encoding residues 322–413 of the β2 adrenergic receptor (P07550), pGEX-CALCR encoding residues 407–490 of the calcitonin receptor (L00587), pGEX-CNR2 encoding residues 295–360 of the cannabinoid type 2 receptor (P34972), pGEX-5HT7 encoding residues 380–445 of the 5-hydroxytryptamine 7 receptor (L21195), pGEX-H2 encoding residues 284–349 of the histamine 2 receptor (S57565), pGEX-TXA2 encoding residues 304–343 of the α isoform of the thromboxane A2 receptor (D38081), pGEX-FZ4 encoding residues 493–537 of the frizzled 4 receptor (AB032417), pGEX-TGFβ encoding residues 805–849 of the type III transforming growth factor b receptor (L07594), pGEX-IGF1 encoding residues 1268–1367 of the insulin growth factor I receptor (X04434). Free GST was produced by using the pGEX-4T3 expression vector without insert. The same plasmid was used to clone the cDNA encoding a central domain of GASP-1, corresponding to amino acids 380 to 1073, downstream the GST sequence. All these plasmids were transformed into the Escherichia coli BL21 strain and expression was induced using 1mM of isopropylthiogalactoside for 2 h at 37°C. Bacteria were then pelleted, resuspended in PBS supplemented with cOmplete protease inhibitors (Roche), lysed at 1.5 kbar using a basic Z cell disrupter (constant system) and finally the lysates were cleared by centrifugation (10,000g, 15 min, 4°C).
cDNAs encoding GASP-1 and GASP-2 were cloned into the pcDNA3 eukaryotic expression vectors. cDNAs encoding GASP-3, -6, -7, and -9 were subcloned into pcDNA3.1 vectors. All the clones were controlled by DNA sequencing. The in vitro production was performed by using the TNT Quick-coupled Transcription/Translation T7 kit (Promega) in presence of [^35S]-Methionine according to the instructions from the manufacturer.
GST-fusion proteins were immobilized on glutathione-coupled Sepharose beads (GE Healthcare) for 1 h at 4°C and incubated with [^35S]-labelled in vitro translated GASP proteins or their truncated or mutated forms in ice-cold binding buffer containing: 20 mM Tris-HCl pH 7.4, 150 mM NaCl, 1 mM EDTA, 1 mM DTT, 10% glycerol and 1% Triton X-100. The mixture was incubated for 1 h at 4°C with gentle rocking. The beads were washed five times with the same ice-cold buffer, resuspended in 30 µl SDS-PAGE sample buffer, incubated 10 min at 65°C, and pelleted for 60 s at 3000 g. The supernatants were then analyzed by SDS-PAGE, the gels were stained with Coomassie blue to visualize GST-fusion proteins, dried and analyzed using a Phosphor-imager (Personal Molecular Imager FX, Biorad) to visualize [^35S]-labelled GASPs. Quantification was performed with the Quantity One software (Biorad). GST-pull down quantification data were analyzed using GraphPad Prism 4.03 (GraphPad Software). Quantifications presented are means of at least three independent experiments.

Assay [6] has as its system GST-fused DOR C-tail. The note with it: previous study; ref [6]; cited from earlier work. The source says:
We therefore hypothesized that this conserved carboxyl-terminal domain could be critical for the interaction of GASPs with GPCRs.

Where only a bound is given, the exact number is not on record here.

B1: amino-acids 898 to 1395: truncated form of GASP-1 used by Heydorn and collaborators (protein, UniProt Q5JY77 898-1395, looked up, fragment)
chain: ESETEEETIFGSWFWDGKEVSEEAGPCCVSKPEDDEEMIVESWFWSRDKAIKETGTVATCESKPENEEGAIVGSWFEAEDEVDNRTDNGSNCGSRTLADEDEAIVGSWFWAGDEAHFESNPSPVFRAICRSTCSVEQEPDPSRRPQSWEEVTVQFKPGPWGRVGFPSISPFRFPKEAASLFCEMFGGKPRNMVLSPEGEDQESLLQPDQPSPEFPFQYDPSYRSVQEIREHLRAKESTEPESSSCNCIQCELKIGSEEFEELLLLMEKIRDPFIHEISKIAMGMRSASQFTRDFIRDSGVVSLIETLLNYPSSRVRTSFLENMIRMAPPYPNLNIIQTYICKVCEETLAYSVDSPEQLSGIRMIRHLTTTTDYHTLVANYMSGFLSLLATGNAKTRFHVLKMLLNLSENLFMTKELLSAEAVSEFIGLFNREETNDNIQIVLAIFENIGNNIKKETVFSDDDFNIEPLISAFHKVEKFAKELQGKTDNQNDPEGDQEN
In the case of B1, the “interaction of GASP-1 with ADRB1 C-tail” value in the assay on GST-fused ADRB1 C-tail [1] is given as “low interaction”.

B2: GASP-1: GPCR-associated sorting protein 1 (protein)
chain: MTGAEIESGAQVKPEKKPGEEVVGGAEIENDVPLVVRPKVRTQAQIMPGARPKNKSKVMPGASTKVETSAVGGARPKSKAKAIPVSRFKEEAQMWAQPRFGAERLSKTERNSQTNIIASPLVSTDSVLVAKTKYLSEDRELVNTDTESFPRRKAHYQAGFQPSFRSKEETNMGSWCCPRPTSKQEASPNSDFKWVDKSVSSLFWSGDEVTAKFHPGNRVKDSNRSMHMANQEANTMSRSQTNQELYIASSSGSEDESVKTPWFWARDKTNTWSGPREDPNSRSRFRSKKEVYVESSSGSEHEDHLESWFGAGKEAKFRSKMRAGKEANNRARHRAKREACIDFMPGSIDVIKKESCFWPEENANTFSRPMIKKEARARAMTKEEAKTKARARAKQEARSEEEALIGTWFWATDESSMADEASIESSLQVEDESIIGSWFWTEEEASMGTGASSKSRPRTDGERIGDSLFGAREKTSMKTGAEATSESILAADDEQVIIGSWFWAGEEVNQEAEEETIFGSWFWVIDAASVESGVGVSCESRTRSEEEEVIGPWFWSGEQVDIEAGIGEEARPGAEEETIFGSWFWAENQTYMDCRAETSCDTMQGAEEEEPIIGSWFWTRVEACVEGDVNSKSSLEDKEEAMIPCFGAKEEVSMKHGTGVRCRFMAGAEETNNKSCFWAEKEPCMYPAGGGSWKSRPEEEEDIVNSWFWSRKYTKPEAIIGSWLWATEESNIDGTGEKAKLLTEEETIINSWFWKEDEAISEATDREESRPEAEEGDIIGSWFWAGEEDRLEPAAETREEDRLAAEKEGIVGSWFGAREETIRREAGSCSKSSPKAEEEEVIIGSWFWEEEASPEAVAGVGFESKPGTEEEEITVGSWFWPEEEASIQAGSQAVEEMESETEEETIFGSWFWDGKEVSEEAGPCCVSKPEDDEEMIVESWFWSRDKAIKETGTVATCESKPENEEGAIVGSWFEAEDEVDNRTDNGSNCGSRTLADEDEAIVGSWFWAGDEAHFESNPSPVFRAICRSTCSVEQEPDPSRRPQSWEEVTVQFKPGPWGRVGFPSISPFRFPKEAASLFCEMFGGKPRNMVLSPEGEDQESLLQPDQPSPEFPFQYDPSYRSVQEIREHLRAKESTEPESSSCNCIQCELKIGSEEFEELLLLMEKIRDPFIHEISKIAMGMRSASQFTRDFIRDSGVVSLIETLLNYPSSRVRTSFLENMIRMAPPYPNLNIIQTYICKVCEETLAYSVDSPEQLSGIRMIRHLTTTTDYHTLVANYMSGFLSLLATGNAKTRFHVLKMLLNLSENLFMTKELLSAEAVSEFIGLFNREETNDNIQIVLAIFENIGNNIKKETVFSDDDFNIEPLISAFHKVEKFAKELQGKTDNQNDPEGDQEN
modifications: [35S]-methionine labelled
On to B2, for which, in the assay on GST-fused CNR2 C-tail, the “interaction with CNR2 C-tail” value is listed as “interact with GASP-1”. In [2], the “interaction with TGFβ C-tail” value is reported as “no interaction was detected”. For the same molecule, the “interaction with ADRB2 C-tail” value with GST-fused ADRB2 C-tail is recorded as “interact with GASP-1”. In addition, in the assay with GST-fused DOR C-tail [3], the “interaction with DOR C-tail” value is “significant interactions”. Also, the “interaction with IGF1 C-tail” value in [4] is “no interaction was detected”. Moreover, the “GASP input retained by GPCR C-tails” value in the assay on GST-fused GPCR C-tails (percent of GASP input) was above 10%. The “interaction with GPCR C-tails” value in the assay with GST-fused GPCR C-tails (twelve GPCR C-tails) is “medium to strong interactions”. In the assay with GST-fused FZ4 C-tail, the “interaction with FZ4 C-tail” value is listed as “strong interaction”.

B3: amino acids 924 to 1395: carboxyl-terminal fragment of GASP-1, contains 2 GASP motifs (protein)
chain: CCVSKPEDDEEMIVESWFWSRDKAIKETGTVATCESKPENEEGAIVGSWFEAEDEVDNRTDNGSNCGSRTLADEDEAIVGSWFWAGDEAHFESNPSPVFRAICRSTCSVEQEPDPSRRPQSWEEVTVQFKPGPWGRVGFPSISPFRFPKEAASLFCEMFGGKPRNMVLSPEGEDQESLLQPDQPSPEFPFQYDPSYRSVQEIREHLRAKESTEPESSSCNCIQCELKIGSEEFEELLLLMEKIRDPFIHEISKIAMGMRSASQFTRDFIRDSGVVSLIETLLNYPSSRVRTSFLENMIRMAPPYPNLNIIQTYICKVCEETLAYSVDSPEQLSGIRMIRHLTTTTDYHTLVANYMSGFLSLLATGNAKTRFHVLKMLLNLSENLFMTKELLSAEAVSEFIGLFNREETNDNIQIVLAIFENIGNNIKKETVFSDDDFNIEPLISAFHKVEKFAKELQGKTDNQNDPEGDQEN
modifications: [35S]-methionine labelled
On to B3, for which the “GASP-1 fragment input retained by ADRB1 C-tail” value with GST-fused ADRB1 C-tail [5] worked out at 5%. In addition, in the assay on GST-fused DOR C-tail [6], the “interaction with the DOR C-tail” value is on record as “strong interaction”.
